According to US11352401:

The binders below were run against T1, HLA-B*44 (human) (assay: UV peptide-exchange ELISA; +++ = yield >50%).
T1 construct: MHC monomer made peptide-receptive by UV cleavage of a UV-sensitive ligand; also called peptide-receptive MHC class I monomer
Source text: Candidate peptides for T cell based therapies according to the present invention were further tested for their MHC binding capacity (affinity). The individual peptide-MHC complexes were produced by UV-ligand exchange, where a UV-sensitive peptide is cleaved upon UV-irradiation, and exchanged with the peptide of interest as analyzed. Only peptide candidates that can effectively bind and stabilize the peptide-receptive MHC molecules prevent dissociation of the MHC complexes. To determine the yield of the exchange reaction, an ELISA was performed based on the detection of the light chain (β2m) of stabilized MHC complexes. The assay was performed as generally described in Rodenko et al. (Rodenko et al., 2006).
96 well MAXISorp plates (NUNC) were coated over night with 2 ug/ml streptavidin in PBS at room temperature, washed 4× and blocked for 1 h at 37° C. in 2% BSA containing blocking buffer. […] Peptide-MHC monomers of the UV-exchange reaction were diluted 100-fold in blocking buffer. Samples were incubated for 1 h at 37° C., washed four times, incubated with 2 ug/ml HRP conjugated anti-β2m for 1h at 37° C., washed again and detected with TMB solution that is stopped with […]. Absorption was measured at 450 nm.
For SEFMQVIF [SEFMQVIF (SEQ ID NO: 323)], the peptide exchange yield was 50 to 75%. Work on SEGSEPALLHSW [SEGSEPALLHSW (SEQ ID NO: 338)] yielded a peptide exchange yield of 50 to 75%. AETPIQNVI [AETPIQNVI (SEQ ID NO: 364)] gave a peptide exchange yield of 50 to 75%. Binder AEIQGNINHV [AEIQGNINHV (SEQ ID NO: 348)] has a peptide exchange yield of 50 to 75%. In the case of QEMQHFLGL [QEMQHFLGL (SEQ ID NO: 326)], the peptide exchange yield is reported as 50 to 75%. SEIEQEIGSL [SEIEQEIGSL (SEQ ID NO: 478)] showed a peptide exchange yield of 50 to 75%. Binder GECDVFKEIL [GECDVFKEIL (SEQ ID NO: 350)] has a peptide exchange yield of 50 to 75%. With AELDKLTSV [AELDKLTSV (SEQ ID NO: 363)] the peptide exchange yield was 50 to 75%. EENDQSTHKW [EENDQSTHKW (SEQ ID NO: 483)] was tested, and the peptide exchange yield was 50 to 75%. EEIEGKGSFTYF [EEIEGKGSFTYF (SEQ ID NO: 341)] gave a peptide exchange yield of 50 to 75%. RELQHEHSL [RELQHEHSL (SEQ ID NO: 481)] showed a peptide exchange yield of 50 to 75%. EEIERFFKL [EEIERFFKL (SEQ ID NO: 369)] showed a peptide exchange yield of 50 to 75%. RELENCFQIQ [RELENCFQIQ (SEQ ID NO: 357)] was tested, and the peptide exchange yield was 50 to 75%. Work on SEDDPILQI [SEDDPILQI (SEQ ID NO: 486)] yielded a peptide exchange yield of 50 to 75%. NEHPSNNW [NEHPSNNW (SEQ ID NO: 329)] showed a peptide exchange yield of 50 to 75%. For HEFSSPSHL [HEFSSPSHL (SEQ ID NO: 342)], the peptide exchange yield was 50 to 75%. For AEIQPQTQV [AEIQPQTQV (SEQ ID NO: 479)], the peptide exchange yield was 50 to 75%. In the case of EEVNYINTF [EEVNYINTF (SEQ ID NO: 351)], the peptide exchange yield is reported as 50 to 75%. Work on TEDPTILRI [TEDPTILRI (SEQ ID NO: 354)] yielded a peptide exchange yield of 50 to 75%. With EDAQGHIW [EDAQGHIW (SEQ ID NO: 331)] the peptide exchange yield was 50 to 75%. TEREWADEW [TEREWADEW (SEQ ID NO: 482)] gave a peptide exchange yield of 50 to 75%. In the case of TDSIHAWTF [TDSIHAWTF (SEQ ID NO: 324)], the peptide exchange yield is reported as 50 to 75%. SEIEDSTKQVF [SEIEDSTKQVF (SEQ ID NO: 485)] gave a peptide exchange yield of 50 to 75%. MEMQKSPVF [MEMQKSPVF (SEQ ID NO: 373)] showed a peptide exchange yield of 50 to 75%. Work on EEGRVYLF [EEGRVYLF (SEQ ID NO: 356)] yielded a peptide exchange yield of 50 to 75%. Work on AEDQLHHSF [AEDQLHHSF (SEQ ID NO: 487)] yielded a peptide exchange yield of 50 to 75%. For EEATGQFHVY [EEATGQFHVY (SEQ ID NO: 344)], the peptide exchange yield was 50 to 75%. For AEVPTGVII [AEVPTGVII (SEQ ID NO: 360)], the peptide exchange yield was 50 to 75%. For ALNPYQYQY [ALNPYQYQY (SEQ ID NO: 347)], the peptide exchange yield was 50 to 75%. For QENSYQSRL [QENSYQSRL (SEQ ID NO: 477)], the peptide exchange yield was 50 to 75%. AETLSTIQI [AETLSTIQI (SEQ ID NO: 333)] showed a peptide exchange yield of 50 to 75%. AEQDMRELTY [AEQDMRELTY (SEQ ID NO: 349)] was tested, and the peptide exchange yield was 50 to 75%. With KEGDLGGKQW [KEGDLGGKQW (SEQ ID NO: 330)] the peptide exchange yield was 50 to 75%. With YEIEARNQVF [YEIEARNQVF (SEQ ID NO: 327)] the peptide exchange yield was 50 to 75%. Binder SEKGVIQVY [SEKGVIQVY (SEQ ID NO: 362)] has a peptide exchange yield of 50 to 75%. AEMLESVIKNY [AEMLESVIKNY (SEQ ID NO: 321)] showed a peptide exchange yield of 50 to 75%. With GEVHPSEMI [GEVHPSEMI (SEQ ID NO: 367)] the peptide exchange yield was 50 to 75%.

Each binder was assayed against T2, HLA-A*02 (human) (assay: UV peptide-exchange ELISA; ++++ = yield >75%).
T2 construct: MHC monomer made peptide-receptive by UV cleavage of a UV-sensitive ligand; also called peptide-receptive MHC class I monomer
With ALLEMFPEITV [ALLEMFPEITV (SEQ ID NO: 122)] the peptide exchange yield was > 75%. FLDPNARPLV [FLDPNARPLV (SEQ ID NO: 117)] was tested, and the peptide exchange yield was > 75%. With ALSSVLHSI [ALSSVLHSI (SEQ ID NO: 118)] the peptide exchange yield was > 75%. For LLKEFVQRV [LLKEFVQRV (SEQ ID NO: 131)], the peptide exchange yield was > 75%. NLWGGQGLLGV [NLWGGQGLLGV (SEQ ID NO: 130)] was tested, and the peptide exchange yield was > 75%. In the case of RTADITVTV [RTADITVTV (SEQ ID NO: 119)], the peptide exchange yield is reported as > 75%. In the case of FLSTVTSV [FLSTVTSV (SEQ ID NO: 126)], the peptide exchange yield is reported as > 75%. With HIMPTVHTV [HIMPTVHTV (SEQ ID NO: 390)] the peptide exchange yield was > 75%. In the case of MLLETQDALYV [MLLETQDALYV (SEQ ID NO: 115)], the peptide exchange yield is reported as > 75%. For ALWLVDPLTV [ALWLVDPLTV (SEQ ID NO: 132)], the peptide exchange yield was > 75%. With VLMEENSKL [VLMEENSKL (SEQ ID NO: 116)] the peptide exchange yield was > 75%. SVASVLLYL [SVASVLLYL (SEQ ID NO: 124)] was tested, and the peptide exchange yield was > 75%. In the case of VLQPFLPSI [VLQPFLPSI (SEQ ID NO: 125)], the peptide exchange yield is reported as > 75%. MTLPVDAVISV [MTLPVDAVISV (SEQ ID NO: 133)] was tested, and the peptide exchange yield was > 75%. ILLPYLQTL [ILLPYLQTL (SEQ ID NO: 393)] was tested, and the peptide exchange yield was > 75%. For ALVDTLTGI [ALVDTLTGI (SEQ ID NO: 121)], the peptide exchange yield was > 75%. With SVSDGIHSV [SVSDGIHSV (SEQ ID NO: 112)] the peptide exchange yield was > 75%. For SLIDMRGIETV [SLIDMRGIETV (SEQ ID NO: 391)], the peptide exchange yield was > 75%. SLFKDQMEL [SLFKDQMEL (SEQ ID NO: 392)] was tested, and the peptide exchange yield was > 75%. In the case of FLGTTPTL [FLGTTPTL (SEQ ID NO: 128)], the peptide exchange yield is reported as > 75%. For AVLTGLVEV [AVLTGLVEV (SEQ ID NO: 113)], the peptide exchange yield was > 75%. In the case of FSIPEGALVAV [FSIPEGALVAV (SEQ ID NO: 388)], the peptide exchange yield is reported as > 75%. GLDGSLVFL [GLDGSLVFL (SEQ ID NO: 127)] was tested, and the peptide exchange yield was > 75%. In the case of ALLANLPAV [ALLANLPAV (SEQ ID NO: 120)], the peptide exchange yield is reported as > 75%. ILDERQVLL [ILDERQVLL (SEQ ID NO: 114)] was tested, and the peptide exchange yield was > 75%. With TLMEQPLTTL [TLMEQPLTTL (SEQ ID NO: 389)] the peptide exchange yield was > 75%. VLYDKDAVYV [VLYDKDAVYV (SEQ ID NO: 129)] was tested, and the peptide exchange yield was > 75%.

These binders were tested against T3, HLA-A*03 (human) (assay: UV peptide-exchange ELISA; ++++ = yield >75%).
T3 construct: MHC monomer made peptide-receptive by UV cleavage of a UV-sensitive ligand; also called peptide-receptive MHC class I monomer
With AVFDKFIRY [AVFDKFIRY (SEQ ID NO: 204)] the peptide exchange yield was > 75%. In the case of KVKDTPGLGK [KVKDTPGLGK (SEQ ID NO: 203)], the peptide exchange yield is reported as > 75%. For KLAELEGALQK [KLAELEGALQK (SEQ ID NO: 202)], the peptide exchange yield was > 75%.
